# Results reported in patent US20130071357A1, “IDENTIFICATION, PROLIFERATION IN SITU, HARVESTING, SEPARATION, AND TRANSPLANTATION OF ADULT-DERIVED REGENERATIVE PLURIPOTENT TRANSITIONAL BLASTOMERE-LIKE STEM CELLS AND METHODS OF TREATMENT THEREOF” (HEYGEN, LLC, priority 2011, published 2013).
# B1: brain-derived neurotrophic factor: lineage-induction agent (protein, UniProt P23560 19-247, looked up)
# Neurotrophic factor BDNF …: APMKEANIRGQGGLAYPGVRTHGTLESVNGPKAGSRGLTSLADTFEHVIEELLDEDQKVRPNEENNKDADLYTSRVMLSSQVPLEPPLLFLLEEYKNYLDAANMSMRVRRHSDPARRGELSVCDSISEWVTAADKKTAVDMSGGTVTVLEKVPVSKGQLKQYFYETKCNPMGYTKEGCRGIDKRHWNSQCRTTQSYVRALTMDSKKRIGWRFIRIDTSCVCTLTIKRGR
# Tests used:
# [1] = tested on: adult totipotent blastomeric-like stem cells; experiment: induction of blastomeric-like stem cells in culture; assay type: cell-based, rat; conditions: BLSCs
# Excerpt: 1961; Rohme 1981; Young and Black, 2005a].
# FIG. 7. Blastomeric-like stem cells (BLSCs) harvested from male Sprague-Dawley out bred rat 0001 and propagated from a single cell derived by serial dilution clonogenic analysis, then genomically labeled with LacZ to synthesize the beta-galactosidase gene product. Clone designated as Scl-44beta. […] B-L is phase contrast microscopy to show unstained cells in field of view. […] Original magnification 200×.
# FIG. 8. Blastomeric-like stem cells (BLSCs) harvested from male Sprague-Dawley out bred rat 0001 and propagated from a single cell derived by serial dilution clonogenic analysis, then genomically labeled with LacZ to synthesize the beta-galactosidase gene product. Clone designated as Scl-44beta.
# [2] = tested on: adult pluripotent epiblast-like stem cells; experiment: induction of epiblast-like stem cells in culture; assay type: cell-based, rat; conditions: ELSCs
molecule,measurement,setting,value
B1,response to lineage-induction agent,[1],forming cells belonging to the ectodermal lineage
same,response to lineage-induction agent,[2],forming cells belonging to the ectodermal lineage
